Measured values published in patent US20200190151A1 (Scripps Research, published 2020).
No end group written: not given here.

Biological target: T1, Kv1.3 (human potassium voltage-gated channel subfamily A member 3) (human, UniProt P22001 1-575)
T1 construct: whole, on cells
Assay: immunofluorescence staining of Kv1.3 expressing HEK293F cells, flow cytometry

T1 sequence (P22001 whole entry): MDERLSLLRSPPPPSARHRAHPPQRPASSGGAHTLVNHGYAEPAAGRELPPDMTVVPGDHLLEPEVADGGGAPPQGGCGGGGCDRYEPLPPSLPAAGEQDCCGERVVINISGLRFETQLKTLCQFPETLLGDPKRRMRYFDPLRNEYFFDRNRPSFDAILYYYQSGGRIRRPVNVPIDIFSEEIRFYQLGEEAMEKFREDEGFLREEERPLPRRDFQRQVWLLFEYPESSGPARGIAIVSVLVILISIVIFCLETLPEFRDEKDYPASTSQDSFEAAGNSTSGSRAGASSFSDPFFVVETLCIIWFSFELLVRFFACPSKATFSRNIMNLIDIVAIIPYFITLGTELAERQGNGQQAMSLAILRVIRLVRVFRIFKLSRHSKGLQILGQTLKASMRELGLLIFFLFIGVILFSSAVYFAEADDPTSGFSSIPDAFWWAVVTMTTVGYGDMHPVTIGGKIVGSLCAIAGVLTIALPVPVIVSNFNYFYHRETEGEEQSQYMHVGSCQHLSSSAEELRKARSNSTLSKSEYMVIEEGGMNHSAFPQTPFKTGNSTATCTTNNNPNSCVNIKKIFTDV

B1: CllTx1-Fc fusion protein (Fc fusion)
chain: ITINVKCTSPQQCLRPCKDRFGQHAGGKCINGKCKCYP
modifications: ends and bridges not checked; also: fused to human IgG1 Fc fragment, limits and linker not given here
notes: mature; also called recombinant CllTx1-Fc fusion protein; not shown: human IgG1 Fc fragment
Question: Does B1 bind?
Answer: binds
